Assay results: US8889620B2, “Pharmaceutical compositions comprising peptide antagonists of vascular endothelial growth factor” (Children's Medical Center Corporation, priority 1997, dated 2014)
Entries after “also recorded” stand apart in the source; their conditions may differ. Each block holds one molecule with its values, some of them ahead of it. Where no end group is shown, it is not given here.

What was measured:
[1] = system: VEGF165-induced proliferation of HUVEC; assay: Inhibition of VEGF165-stimulated HUVEC proliferation; type: cell-based, human; details: even at 25 ug/ml
Protocol: (§1) FIG. 6. GST-Ex 7+8 fusion protein inhibits VEGF165-stimulated HUVEC proliferation. HUVEC were cultured in 96-well dishes (5,000 cell/well) as in FIG. 2. Increasing concentrations of VEGF165 (open circles), together with 15 ug/ml GST-Ex 7+8 (closed circles) or 25 ug/ml GST (squares), were added to the medium, and the cells were incubated for 4 more days. DNA synthesis was measured in HUVEC as described in FIG. 2. The results represent the average counts of three wells, and the standard deviations were determined.
FIG. 7. GST-Ex 7+8 fusion protein inhibits VEGF165 and VEGF121-stimulated HUVEC proliferation. Increasing concentration of VEGF165 (circles) or VEGF121 (square) with 15 ug/ml GST-Ex 7+8 (closed symbols) or without GST-Ex 7+8 (open symbols) were added to HUVEC, and [*H]thymidine incorporation into the DNA was measured as in FIG. 2. The results represent the average counts of three wells and the standard deviations were determined.
(§2) HUVEC were seeded in gelatin-coated 96-well dishes at 4,000 cells/200 Ul/well in M-199 containing 5% FCS and GPS. After 24 H, VEGF isoforms and VEGF exon 7-GST fusion proteins were added to the wells at the same time. The cells were incubated for 72 h, and [3H]thymidine (1 pC/ml) was added for 10-12 h. The medium was aspirated, and the cells were trypsinized and harvested by an automatic cell harvester (TOMTEC) and loaded onto Filtermats (Wallac). The Filtermats were scanned and cpm were determined by a MicroBeta counter (Wallac). The results represent the average of samples assayed in triplicate, and the standard derivations were determined. All experiments were repeated at least three times and similar results were obtained.

VEGF165R on 231 cells [2] = target: T1, VEGF165R on 231 cells (Homo sapiens, UniProt O14786); assay: Inhibition of 125I-VEGF165 binding to MDA-MB-231 (231) cells
T1 construct: to 231 cells which express only VEGF165R; endogenous in cells; host or cells: MDA-MB-231 (ATCC)
T1 sequence (O14786 22-923): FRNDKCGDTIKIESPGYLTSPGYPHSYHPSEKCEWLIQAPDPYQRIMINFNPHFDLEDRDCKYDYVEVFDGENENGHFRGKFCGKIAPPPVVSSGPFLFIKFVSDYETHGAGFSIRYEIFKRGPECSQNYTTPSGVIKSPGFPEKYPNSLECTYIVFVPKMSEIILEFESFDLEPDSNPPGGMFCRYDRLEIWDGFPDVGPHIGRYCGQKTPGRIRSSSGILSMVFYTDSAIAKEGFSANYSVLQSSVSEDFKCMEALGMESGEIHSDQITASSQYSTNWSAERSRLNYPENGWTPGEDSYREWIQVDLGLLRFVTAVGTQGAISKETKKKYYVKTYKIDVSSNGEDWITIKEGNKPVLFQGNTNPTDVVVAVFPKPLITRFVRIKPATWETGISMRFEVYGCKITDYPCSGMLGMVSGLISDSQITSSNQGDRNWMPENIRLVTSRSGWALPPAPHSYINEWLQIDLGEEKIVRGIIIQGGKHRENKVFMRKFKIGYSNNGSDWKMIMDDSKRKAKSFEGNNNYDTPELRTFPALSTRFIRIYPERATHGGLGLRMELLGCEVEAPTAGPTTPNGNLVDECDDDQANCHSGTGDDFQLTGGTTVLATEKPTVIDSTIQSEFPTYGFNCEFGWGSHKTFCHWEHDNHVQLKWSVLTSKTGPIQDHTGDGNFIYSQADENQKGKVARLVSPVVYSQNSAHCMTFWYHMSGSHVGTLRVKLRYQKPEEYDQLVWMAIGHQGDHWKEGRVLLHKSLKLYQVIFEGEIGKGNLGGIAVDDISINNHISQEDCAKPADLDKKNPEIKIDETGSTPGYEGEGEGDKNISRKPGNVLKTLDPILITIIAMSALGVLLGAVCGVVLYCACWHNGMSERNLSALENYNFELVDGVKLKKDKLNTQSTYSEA
Protocol: (§3) FIGS. 3A-3C. Inhibition of ^125I-VEGF165 binding to HUVEC, MDA MB 231 cells, and PAE-KDR cells by GST-EX 7+8. ^125I-VEGF165 (5 ng,/ml) was bound to subconfluent cultures of HUVEC (3A), MDA MB 23 1 cells (3B), and PAE-KDR cells (3C) in 48-well dishes in the presence of increasing amounts of GST-Ex 7+8 (closed 20 square) or control GST protein (open squares). At the end of a 2-h incubation, the cells were washed and lysed, and the cell-associated radioactivity was determined with a γ-counter. The counts obtained are expressed as the percentage of the counts obtained in the presence of PBS without addition of GST or fusion protein.
(§4) Binding and cross-linking experiments using 125I-VEGF165 and 125I-VEGF121 were performed at described previously (Gitay-Goren, et al., J. Biol. Chem., 287, 6003-6096 (1992), Soker, et al., J: Biol. Chem., 271,5761-5767 (1996)). VEGF binding was quantified by measuring the cell-associated radioactivity in a y-counter (Beckman, Gamma 5500). The counts represent the average of three walls. All experiments were repeated at least three times, and similar results were obtained. 125I-VEGF cross-linked complexes were resolved by 6% SDS-PAGE, and the gels were exposed to a phosphor screen and scanned after 24 h by a PhosphorImager (Molecular Dynamics). Subsequently, the gels were exposed to x-ray film.

[3] = target: T2, KDR/Flk-1 and VEGF165R on HUVEC (Homo sapiens, UniProt O14786); assay: Inhibition of 125I-VEGF165 binding to HUVEC
T2 construct: HUVEC, which express both KDR/Flk-1 and VEGF165R; endogenous in cells; host or cells: HUVEC (ATCC)
T2 sequence (O14786 22-923): as above
Protocol: as §3
FIGS. 5A and 5B. Localization of a core inhibitory region within exon 7. GST-Ex 7 fusion proteins containing full-length exon 7-encoded domain or truncations at the N-terminal and C-terminal ends were prepared as described in the Examples. ^125I-VEGF165 (5 ng/ml) was bound to subconfluent HUVEC cultures as described in FIG. 3, in the presence of increasing concentrations of the GST fusion proteins. At the end of a 2-h incubation, the cells were washed and lysed, and the cell-associated radioactivity was determined with a y counter. The counts obtained are expressed as percentage of the counts obtained in the presence of PBS without fusion protein B, the amino acid sequences of VEGF exon 7 derivatives. These derivatives were prepared to contain the first cysteine residue of exon 8 at their C termini to keep an even number of cysteine residue. FIG. 5B discloses SEQ ID NO: 19.
as §4

[4] = target: T3, KDR/Flk-1 on PAE-KDR cells (Homo sapiens, UniProt P35968); assay: Inhibition of 125I-VEGF165 binding to PAE-KDR cells; set-up: species or system porcine endothelial cells transfected to express KDR/Flk-1
T3 construct: expressed in transfected cells; host or cells: porcine endothelial cells (PAE), gift of Dr. Claesson-Welsh
T3 sequence (P35968 20-1356): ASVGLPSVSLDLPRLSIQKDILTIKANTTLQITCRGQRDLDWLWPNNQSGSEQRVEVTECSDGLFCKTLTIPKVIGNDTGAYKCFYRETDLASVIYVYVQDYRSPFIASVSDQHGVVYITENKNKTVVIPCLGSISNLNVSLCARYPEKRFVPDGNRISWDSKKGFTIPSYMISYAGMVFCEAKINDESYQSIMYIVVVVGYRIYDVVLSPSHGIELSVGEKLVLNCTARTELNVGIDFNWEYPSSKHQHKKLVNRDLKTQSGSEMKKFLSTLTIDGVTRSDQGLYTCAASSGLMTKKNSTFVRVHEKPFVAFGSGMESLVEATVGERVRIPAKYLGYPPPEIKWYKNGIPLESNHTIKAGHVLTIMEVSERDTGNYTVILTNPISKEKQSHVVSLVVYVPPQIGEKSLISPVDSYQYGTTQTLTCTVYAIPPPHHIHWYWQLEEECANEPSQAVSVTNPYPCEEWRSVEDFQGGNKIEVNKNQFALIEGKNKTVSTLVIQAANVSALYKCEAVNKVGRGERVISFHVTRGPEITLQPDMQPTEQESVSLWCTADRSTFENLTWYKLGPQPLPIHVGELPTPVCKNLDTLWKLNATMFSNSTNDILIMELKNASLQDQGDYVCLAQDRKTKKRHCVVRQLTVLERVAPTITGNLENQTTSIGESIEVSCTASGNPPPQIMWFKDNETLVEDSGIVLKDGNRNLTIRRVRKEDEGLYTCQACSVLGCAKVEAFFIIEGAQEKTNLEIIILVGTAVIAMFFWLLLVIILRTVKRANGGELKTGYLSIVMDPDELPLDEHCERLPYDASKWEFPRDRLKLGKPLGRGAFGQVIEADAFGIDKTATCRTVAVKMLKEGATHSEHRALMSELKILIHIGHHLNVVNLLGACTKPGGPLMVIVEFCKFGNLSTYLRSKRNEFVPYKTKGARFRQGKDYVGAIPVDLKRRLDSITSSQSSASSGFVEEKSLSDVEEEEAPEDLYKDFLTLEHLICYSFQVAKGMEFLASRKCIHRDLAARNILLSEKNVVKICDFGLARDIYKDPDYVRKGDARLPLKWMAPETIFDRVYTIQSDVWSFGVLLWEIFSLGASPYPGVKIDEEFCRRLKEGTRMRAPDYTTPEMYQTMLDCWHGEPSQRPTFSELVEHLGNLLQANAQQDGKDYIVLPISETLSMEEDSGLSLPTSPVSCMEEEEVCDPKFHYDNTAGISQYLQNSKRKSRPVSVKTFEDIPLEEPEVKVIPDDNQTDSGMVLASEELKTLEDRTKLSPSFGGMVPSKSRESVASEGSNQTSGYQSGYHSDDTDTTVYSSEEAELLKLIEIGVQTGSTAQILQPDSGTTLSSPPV
Protocol: as §3
Human umbilical vein endothelial cells (HUVEC) were obtained from the American Type Culture Collection (ATCC) (Rockville, Md.) and grown on gelatin-coated dishes in M-199 medium containing 20% fetal calf serum (FCS) and a mixture of glutamine, penicillin, and streptomycin (GPS). Basic FGF (1 nglml) was added to the culture medium every other day. Porcine endothelial cells (PAE), parental and transfected to express KDRElk-1 (PAE-KDR), were kindly provided by Dr. Lema Claesson-Welsh and grown in F12 medium containing 10% FCS and GPS as described (Waltenberger, et al., J. Biol. Chem., 269,26988-26995 (1994)). MDAMB-231 (231) cells were obtained from ATCC and grown in Bulbecoo's modified Eagle's medium containing 10% FCS and GPS.
as §4

VEGF165R = VEGF165R (Homo sapiens, UniProt O14786); assay: Direct binding/cross-linking of 125I-GST-Ex 7 to HUVEC: VEGF165R; set-up: HUVEC, which express both KDR/Flk-1 and VEGF165R; endogenous in cells; host or cells: HUVEC (ATCC); details: cross-linking, 1 ug/ml heparin, FIG. 1 lane 3; listed as exon 7 fusion protein
VEGF165R, sequence (O14786 22-923): as the sequence (O14786 22-923) above
Protocol: (§5) FIG. 1. Cross-linking of 1 ^125I-VEGF165, ^125I-VEGF121 and ^125I-GST-EX 7 to HUVEC. ^125I-VEGF165 (5 ng/ml) (lane 1) or ^125I-VEGF121 (10 ng/ml) (lane 2) or ^125I-GST-EX 7 (50 nglml) (lane 3) were bound to subconfluent cultures of HUVEC in 6-cm dishes. The binding was carried out in the presence of 1 ug/ml heparin. At the end of a 2-H incubation, each ^125I-VEGF isoform was chemically cross-linked to the cell surface. The cells were lysed and proteins were resolved by 6% SDS-PAGE. The polyacrylamide gel was dried and exposed to x-ray film.
as §4

VEGF165R on 231 cells [5] = target: T1, VEGF165R on 231 cells; details: Soker et al., J. Biol. Chem. 271, 5761-5767 (1996); cited from earlier work
KDR/Flk-1 = KDR/Flk-1 (Homo sapiens, UniProt P35968); assay: Direct binding/cross-linking of 125I-GST-Ex 7 to HUVEC: KDR/Flk-1; set-up: HUVEC, which express both KDR/Flk-1 and VEGF165R; endogenous in cells; host or cells: HUVEC (ATCC); details: cross-linking, 1 ug/ml heparin, FIG. 1 lane 3; listed as exon 7 fusion protein
KDR/Flk-1, sequence (P35968 20-1356): as the sequence (P35968 20-1356) above
Protocol: as §5, §4

HUVEC = HUVEC proliferation ([3H]thymidine incorporation) in response to VEGF isoforms; type: cell-based, human
Protocol: FIG. 2. HUVEC proliferation in response to VEGF165 and VEGF121 HUVEC were cultured in 96-well dishes (5,000 cell/well) for 24 h. Increasing amounts of VEGF165 (closed circles) or VEGF121 (open circles) were added to the medium, and the cells were incubated for 3 more days. DNA synthesis based on the incorporation of [3H] thymidine into HUVEC DNA was measured as described in the Examples. The results represent the average counts in three wells, and the standard deviations were determined.
as §1, §2

[6] = control GST protein, even at 20 μg/ml

Molecule: GST protein: glutathione S-transferase alone, control protein prepared in a similar way [reference compound]
inhibition of HUVEC proliferation by GST alone (in words) [1]: did not inhibit | effect of GST alone on 125I-VEGF165 binding to 231 cells (in words) (VEGF165R on 231 cells [2]; [6]): no significant effect; also recorded: did not inhibit | effect of GST alone on 125I-VEGF165 binding to HUVEC (in words) [3, 6]: no significant effect; also recorded: did not inhibit | effect of GST alone on 125I-VEGF165 binding to PAE-KDR cells (in words) [4, 6]: no significant effect; also recorded: did not inhibit

inhibition of 125I-VEGF165 binding to 231 cells (VEGF165R on 231 cells [2]; 125I-VEGF165 5 ng/ml, increasing concentrations of fusion protein, FIG. 3B): 98% | inhibition of 125I-VEGF165 binding to 231 cells compared with GST-Ex 7+8 (in words) (VEGF165R on 231 cells [2]; data not shown): comparable to that of GST-Ex 7+8 | inhibition of 125I-VEGF165 binding to HUVEC ([3]; 2 ug/ml fusion protein, FIG. 5): 80% | inhibition of 125I-VEGF165 binding to HUVEC ([3]; 125I-VEGF165 5 ng/ml, increasing concentrations of fusion protein, FIG. 3A): 85-95% | inhibition of 125I-VEGF165 binding to HUVEC compared with GST-Ex 7+8 (in words) ([3]; data not shown): comparable to that of GST-Ex 7+8 | inhibition of 125I-VEGF165 binding to PAE-KDR cells (in words) ([4]; 125I-VEGF165 5 ng/ml, FIG. 3C): did not, however, inhibit at all | direct binding to KDR/Flk-1 on HUVEC (in words) (KDR/Flk-1): not and does not bind directly
Molecule: GST-Ex 7: GST fusion protein with the entire 44 amino acid VEGF exon 7-encoded domain plus first cysteine residue of exon 8
direct binding to VEGF165R on HUVEC (in words) (VEGF165R): binds directly; also recorded: could bind | direct binding to VEGF165R on 231 cells (in words) (VEGF165R on 231 cells [5]): binds directly

inhibitory activity on 125I-VEGF165 binding to HUVEC after deletion in exon 7, versus GST-Ex 7 (in words) ([3]; FIG. 5, increasing concentrations): did not reduce the inhibitory activity
Molecule: GST-Ex 7d-(1-10): GST-exon 7 fusion protein with the first 10 N-terminal amino acids of exon 7 deleted (HLFVQDPQTCKCSCKNTDSRCKARQLELNERTCRC; cysteine pairing not given here; also: GST fusion protein, side of fusion not given here)

Molecule: VEGF165: human recombinant vascular endothelial growth factor 165 isoform produced in Sf-21 insect cells
increase in the proliferation rate of HUVEC (HUVEC; 1-5 ng/ml VEGF165, FIG. 6): 5.5 fold | concentration at which the proliferation increase peaks (HUVEC; FIG. 6): 2.5 ng/mL | concentration for maximal stimulation of DNA synthesis (HUVEC; HUVEC, FIG. 2): 4 ng/mL | increase in HUVEC proliferation over control at maximal stimulation (HUVEC; HUVEC, FIG. 2): 8 fold | concentration for half-maximal stimulation of DNA synthesis (HUVEC; HUVEC, [3H]thymidine incorporation, FIG. 2): 1 ng/mL

B1: VEGF121: human recombinant vascular endothelial growth factor 121 isoform produced in Sf-21 insect cells (protein)
chain: APMAEGGGQNHHEVVKFMDVYQRSYCHPIETLVDIFQEYPDEIEYIFKPSCVPLMRCGGCCNDEGLECVPTEESNITMQIMRIKPHQGQHIGEMSFLQHNKCECRPKKDRARQEKCDKPRR
concentration for maximal stimulation of DNA synthesis (HUVEC; HUVEC, FIG. 2): 20 ng/mL | increase in HUVEC proliferation over control at maximal stimulation (HUVEC; HUVEC, FIG. 2): 4 fold
